Source: paper PMC10397247
Values belong to the binder of their own block, whether it stands above or below them.

Key:
Assay in all cases: two-hybrid library CCNG1;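 further: natural log of median RNA to DNA barcode read ratio; higher means stronger binding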
P11A-bA = biological target: T1, P11A-bA
T1 chain: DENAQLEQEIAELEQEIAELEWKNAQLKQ

P12A-bA = biological target: T2, P12A-bA
T2 chain: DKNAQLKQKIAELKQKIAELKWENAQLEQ

P4A-bA = biological target: T3, P4A-bA
T3 chain: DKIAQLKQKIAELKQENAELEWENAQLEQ

P1A-bA = biological target: T4, P1A-bA
T4 chain: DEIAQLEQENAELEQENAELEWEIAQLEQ

P6A-bA = biological target: T5, P6A-bA
T5 chain: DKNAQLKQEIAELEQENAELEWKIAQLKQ

P3A-bA = biological target: T6, P3A-bA
T6 chain: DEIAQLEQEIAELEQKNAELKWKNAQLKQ

P2A-bA = biological target: T7, P2A-bA
T7 chain: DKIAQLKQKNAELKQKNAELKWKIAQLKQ

P8A-bA = biological target: T8, P8A-bA
T8 chain: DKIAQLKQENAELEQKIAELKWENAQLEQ

P7A-bA = biological target: T9, P7A-bA
T9 chain: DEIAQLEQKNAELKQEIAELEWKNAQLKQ

P5A-bA = biological target: T10, P5A-bA
T10 chain: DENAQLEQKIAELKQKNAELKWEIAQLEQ

P9A-bA = biological target: T11, P9A-bA
T11 chain: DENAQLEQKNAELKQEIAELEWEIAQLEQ

4H570-bN = biological target: T12, 4H570-bN
T12 chain: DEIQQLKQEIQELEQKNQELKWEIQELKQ

4H3843-bA = biological target: T13, 4H3843-bA
T13 chain: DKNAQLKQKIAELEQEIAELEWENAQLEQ

4H2610-bA = biological target: T14, 4H2610-bA
T14 chain: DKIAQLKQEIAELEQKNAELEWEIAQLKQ

4H2697-bA = biological target: T15, 4H2697-bA
T15 chain: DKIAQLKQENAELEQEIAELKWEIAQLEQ

4H331-bA = biological target: T16, 4H331-bA
T16 chain: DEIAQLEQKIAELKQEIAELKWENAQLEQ

4H568-bA = biological target: T17, 4H568-bA
T17 chain: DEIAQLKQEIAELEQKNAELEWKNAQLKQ

4H3606-bA = biological target: T18, 4H3606-bA
T18 chain: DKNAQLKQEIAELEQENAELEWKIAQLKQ

4H953-bA = biological target: T19, 4H953-bA
T19 chain: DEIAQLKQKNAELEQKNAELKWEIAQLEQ

4H1845-bA = biological target: T20, 4H1845-bA
T20 chain: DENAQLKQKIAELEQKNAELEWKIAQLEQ

4H3855-bA = biological target: T21, 4H3855-bA
T21 chain: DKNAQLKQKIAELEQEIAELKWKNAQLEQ

4H687-bA = biological target: T22, 4H687-bA
T22 chain: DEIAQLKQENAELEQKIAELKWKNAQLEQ

4H1369-bA = biological target: T23, 4H1369-bA
T23 chain: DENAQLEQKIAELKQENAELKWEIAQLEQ

4H2576-bA = biological target: T24, 4H2576-bA
T24 chain: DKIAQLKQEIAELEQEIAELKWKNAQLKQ

4H4001-bA = biological target: T25, 4H4001-bA
T25 chain: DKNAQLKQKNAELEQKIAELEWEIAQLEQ

4H2667-bA = biological target: T26, 4H2667-bA
T26 chain: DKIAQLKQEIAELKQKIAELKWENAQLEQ

4H797-bA = biological target: T27, 4H797-bA
T27 chain: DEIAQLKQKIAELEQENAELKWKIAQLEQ

4H462-bA = biological target: T28, 4H462-bA
T28 chain: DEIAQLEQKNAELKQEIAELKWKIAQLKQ

4H3782-bA = biological target: T29, 4H3782-bA
T29 chain: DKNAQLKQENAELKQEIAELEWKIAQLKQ

4H3189-bA = biological target: T30, 4H3189-bA
T30 chain: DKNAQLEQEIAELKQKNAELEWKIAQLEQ

4H967-bA = biological target: T31, 4H967-bA
T31 chain: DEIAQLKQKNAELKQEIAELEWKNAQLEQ

4H607-bA = biological target: T32, 4H607-bA
T32 chain: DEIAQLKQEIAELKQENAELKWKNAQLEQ

4H370-bA = biological target: T33, 4H370-bA
T33 chain: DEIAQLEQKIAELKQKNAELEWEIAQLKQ

4H72-bA = biological target: T34, 4H72-bA
T34 chain: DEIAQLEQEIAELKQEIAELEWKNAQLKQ

4H918-bA = biological target: T35, 4H918-bA
T35 chain: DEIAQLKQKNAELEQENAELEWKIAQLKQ

4H883-bA = biological target: T36, 4H883-bA
T36 chain: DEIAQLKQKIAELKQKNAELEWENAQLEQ

4H1446-bA = biological target: T37, 4H1446-bA
T37 chain: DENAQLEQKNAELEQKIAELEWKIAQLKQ

interaction score (P11A-bA): 0.99 | interaction score (P12A-bA): 0.511 | interaction score (P4A-bA): 0.592 | interaction score (P1A-bA): 0.776 | interaction score (P6A-bA): -0.543 | interaction score (P3A-bA): 0.562 | interaction score (P2A-bA): -0.362 | interaction score (P8A-bA): -0.165 | interaction score (P7A-bA): 1.04 | interaction score (P5A-bA): 0.318
Binder: DKNAQLKQENAELEQKIAELKWKIAQLKQ [P10A-bA]

interaction score (P12A-bA): -0.937 | interaction score (P4A-bA): -1.03 | interaction score (P1A-bA): -0.14 | interaction score (P9A-bA): 0.0326 | interaction score (P6A-bA): -0.314 | interaction score (P3A-bA): 0.536 | interaction score (P2A-bA): -1.29 | interaction score (P8A-bA): -1.32 | interaction score (P7A-bA): -1.88 | interaction score (P5A-bA): -1.16
Binder: DKNAQLKQKIAELKQKIAELKWENAQLEQ [P12A-bA]

interaction score (4H570-bN): 0.413 | interaction score (4H3843-bA): -0.634 | interaction score (4H2610-bA): -0.708 | interaction score (4H2697-bA): -0.782 | interaction score (4H331-bA): -0.963 | interaction score (4H568-bA): -1.77 | interaction score (4H3606-bA): 2.35 | interaction score (4H953-bA): -1.23 | interaction score (4H1845-bA): -1.43 | interaction score (4H3855-bA): -1.08 | interaction score (4H687-bA): -0.0949 | interaction score (4H1369-bA): -0.294 | interaction score (4H2576-bA): -0.209 | interaction score (4H4001-bA): -0.513 | interaction score (4H2667-bA): -0.912 | interaction score (4H797-bA): -0.836 | interaction score (4H462-bA): -0.339 | interaction score (4H3782-bA): -0.939 | interaction score (4H3189-bA): -0.843 | interaction score (4H967-bA): -1.41 | interaction score (4H607-bA): -1.2 | interaction score (4H370-bA): -1.03 | interaction score (4H72-bA): -1.2 | interaction score (4H918-bA): -1.28 | interaction score (4H883-bA): -1.53 | interaction score (4H1446-bA): -0.956
Binder: DENAQLEQKIAELKQENAELKWEIAQLEQ [4H1369-bA]
